Tests used:
[1] = Two-step treatment of hair tresses, color loss ΔE; conditions: 2500 μg/mL (E/H 10), 20 min/cycle, 1 cycle
[2] = Assay for bound perhydrolase enzyme activity after treatment cycles (ABTS); format: binding
Procedure: The enzyme used in the following example was HC1121 (T. maritima C277S-HC263; SEQ ID NO: 288) and concentration used was 2500 μg/mL (E/H=10*). Enzyme solution was made in 5% TWEEN®-20 surfactant in 50 mM citrate buffer at pH 6. Approximately 0.8 mL of the enzyme solution was applied on ˜200 mg hair samples (4 test tresses) for 10 minutes. H2O2 and triacetin, formulations were made according to Example 24, in 20% LUBRIDERM® lotion in 50 mM citrate buffer at pH 6. After application of 400 μL each of the reagents, the treatment was allowed to continue for 20 minutes after which the hair was rinsed with tap-water and allowed to dry. Before proceeding with the next cycle the sample was subjected to the surfactant wash with 5% TWEEN®-20 in 50 mM citrate buffer at pH 6 and rinsed with tap-water.
After treatment for a defined number of cycles, 10 mg of hair was cut from each tress and placed into 2 mL microcentrifuge tubes (Eppendorf Protein LoBind; Eppendorf North America, Hauppauge, N.Y.). To each tube was added 480 uL of PAH buffer (50 mM potassium phosphate pH 7.2), 14 μL of 30% hydrogen peroxide (Sigma 3410), and 6 μL triacetin (Sigma-Aldrich, W200700). The perhydrolase reaction was allowed to proceed for 10 minutes at 25° C. The reaction was stopped by diluting aliquots 10×, 100× and 1000× with 10 mM phosphoric acid. For detection, 50 μL of 1 M acetic acid, 50 μL of 40 mg/mL potassium iodide, and 50 μL of 4 mM ABTS (2,2′-azino-bis(3-ethylbenzthiazoline-6-sulphonic acid; Sigma, St Louis, Mo.) were added to 50 μL of the above dilutions. Color was allowed to develop for 10 minutes and read in a spectrophotometer at 405 nm. Values from no-enzyme controls were subtracted to yield values attributable only to enzyme activity. A standard curve of OD 405 nm vs PAA concentration in ppm yielded a conversion factor of 8.75, such that an OD 405 nm of 1.0 corresponded to approximately 8.75 ppm PAA. This value was then multiplied by the appropriate dilution to arrive at the PAA concentration in the perhydrolase reaction.

[3] = Two-step treatment of hair tresses, color loss ΔE; conditions: for Color loss ΔE: 0.75 M H2O2, 1 M TA; for ΔE of color loss: 2500 μg/mL
Procedure: After every fourth cycle the tresses were dried under air and color measurements were made using X-RITE® SP64 spectrophotometer (X-Rite, Grandville, Mich.) with 4 mm port. Color numbers were measured at D65/10° from reflectance, according to CIELAB76. Hair tresses (all 4 replicates) were placed under a card paper with punched out holes, making sure that the background was not visible. The port-hole of the spectrophotometer was centered on the hole to scan the hair sample underneath. The tress-bundle was turned over and placed under the card and an additional measurement was made. Average L*, a*, b* (color according to CIELAB76) values were recorded.
ΔE of color loss was calculated according to the following formula:
ΔE=√{square root over (((L1*−L0)̂2+(a1*−a0)̂2+(b1*−b0)̂2))}{square root over (((L1*−L0)̂2+(a1*−a0)̂2+(b1*−b0)̂2))}{square root over (((L1*−L0)̂2+(a1*−a0)̂2+(b1*−b0)̂2))}
L1*, a1* and b1* are L*, a* and b* values for a sample tress after treatment, L0*, a0* and b0* are L*, a* and b* values for untreated hair

[4] = One-step procedure on hair tresses, tress tensile strength; conditions: 10 μg/mL HC1121, pH 6.6, 50 mM phosphate, 8 cycles
[5] = 200 mM TA/200 mM H2O2, 24 hr/cycle

B1: C277S-HC263: C277S variant of Thermotoga maritima perhydrolase fused via a flexible linker to hair-binding domain HC263 (protein)
chain: MAFFDLPLEELKKYRPERYEEKDFDEFWEETLAESEKFPLDPVFERMESHLKTVEAYDVTFSGYRGQRIKGWLLVPKLEEEKLPCVVQYIGYNGGRGFPHDWLFWPSMGYICFVMDTRGQGSGWLKGDTPDYPEGPVDPQYPGFMTRGILDPRTYYYRRVFTDAVRAVEAAASFPQVDQERIVIAGGSQGGGIALAVSALSKKAKALLCDVPFLCHFRRAVQLVDTHPYAEITNFLKTHRDKEEIVFRTLSYFDGVNFAARAKIPALFSVGLMDNISPPSTVFAAYNYYAGPKEIRIYPYNNHEGGGSFQAVEQVKFLKKLFEKGGPGSGGAGSPGSAGGPGSPSAQSQLPDKHSGLHERAPQRYGPEPEPEPEPIPEPPKEAPVVIEKPKPKPKPKPKPPAHDHKNQKETHQRHAAGSGGGGSPHHHHHH
ΔE of color loss [1]: 2
OD 405nm ([2]; 10 mg hair after 1 cycle): 0.172
PAA ([2]; 10 mg hair after 1 cycle, 10 min reaction): 150.8 ppm
OD 405nm ([2]; 10 mg hair after 4 cycles): 0.439
PAA ([2]; 10 mg hair after 4 cycles): 384.1 ppm
OD 405nm ([2]; 10 mg hair after 8 cycles): 0.901
PAA ([2]; 10 mg hair after 8 cycles): 788.4 ppm
OD 405nm ([2]; 10 mg hair after 12 cycles): 1.287
PAA ([2]; 10 mg hair after 12 cycles): 1126.1 ppm
OD 405nm ([2]; 10 mg hair after 16 cycles): 1.894
PAA ([2]; 10 mg hair after 16 cycles): 1657 ppm
Color loss ΔE ([3]; 750 μg/mL (E/H 3), 40 min/cycle): 8
Color loss ΔE ([3]; 1500 μg/mL (E/H 5), 20 min/cycle): 7
Color loss ΔE ([3]; 1750 μg/mL (E/H 7), 40 min/cycle): 10
Color loss ΔE ([3]; 2500 μg/mL (E/H 10), 20 min/cycle): 10
Color loss ΔE ([3]; 2500 μg/mL (E/H 10), 40 min/cycle): 9
ΔE of color loss ([3]; 4 cycles): 4
ΔE of color loss ([3]; 8 cycles): 6
ΔE of color loss ([3]; 12 cycles): 8
ΔE of color loss ([3]; 16 cycles): 11
Strength N/mg Hair, replicate1 [4, 5]: 1.04 N/mg Hair
Strength N/mg Hair, replicate2 [4, 5]: 0.57 N/mg Hair
Strength N/mg Hair, replicate2 ([4]; 500 mM TA/500 mM H2O2, 24 hr/cycle): 0.55 N/mg Hair

From patent US20130171217A1, “ENZYMATIC PERACID GENERATION FOR USE IN SKIN CARE PRODUCTS” (E I DU PONT DE NEMOURS AND COMPANY, priority 2010, published 2013)
